The numbers were not newly measured in US20250186538A1, “BIVALIRUDIN COMPOUNDS” (The General Hospital Corporation, priority 2022, published 2025), which cites them from elsewhere.

For the data set the following is noted: in vivo.

With “D-Phe-Pro-Arg-Pro-Gly-Gly-Gly-Gly-Asn-Gly-Asp-Phe-Glu-Glu-Ile-Pro-Glu-Glu-Tyr-Leu [bival]”, the Half-life result is on record as “about 20 min”.
